We go through nine variants from IntAct's records for PubMed 25910212.

B1: Sulfotransferase 2B1 (Homo sapiens), O00204 (parent)
chain: MDGPAEPQIPGLWDTYEDDISEISQKLPGEYFRYKGVPFPVGLYSLESISLAENTQDVRDDDIFIITYPKSGTTWMIEIICLILKEGDPSWIRSVPIWERAPWCETIVGAFSLPDQYSPRLMSSHLPIQIFTKAFFSSKAKVIYMGRNPRDVVVSLYHYSKIAGQLKDPGTPDQFLRDFLKGEVQFGSWFDHIKGWLRMKGKDNFLFITYEELQQDLQGSVERICGFLGRPLGKEALGSVVAHSTFSAMKANTMSNYTLLPPSLLDHRRGAFLRKGVCGDWKNHFTVAQSEAFDRAYRKQMRGMPTFPWDEDPEEDGSPDPEPSPEPEPKPSLEPNTSLEREPRPNSSPSPSPGQASETPHPRPS
partner: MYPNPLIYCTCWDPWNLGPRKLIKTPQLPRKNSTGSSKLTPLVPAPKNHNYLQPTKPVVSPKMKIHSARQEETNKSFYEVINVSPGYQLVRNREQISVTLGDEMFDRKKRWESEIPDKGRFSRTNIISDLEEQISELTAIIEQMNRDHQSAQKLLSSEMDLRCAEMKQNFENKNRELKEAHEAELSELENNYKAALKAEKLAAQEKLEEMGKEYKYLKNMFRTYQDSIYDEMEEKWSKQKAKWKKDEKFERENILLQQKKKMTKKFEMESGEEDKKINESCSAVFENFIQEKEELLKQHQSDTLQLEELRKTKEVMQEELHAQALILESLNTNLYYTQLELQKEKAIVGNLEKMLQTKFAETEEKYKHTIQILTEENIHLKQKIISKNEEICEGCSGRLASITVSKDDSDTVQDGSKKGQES
B2: U4/U6 small nuclear ribonucleoprotein Prp31 (Homo sapiens), Q8WWY3 (parent)
chain: MSLADELLADLEEAAEEEEGGSYGEEEEEPAIEDVQEETQLDLSGDSVKTIAKLWDSKMFAEIMMKIEEYISKQAKASEVMGPVEAAPEYRVIVDANNLTVEIENELNIIHKFIRDKYSKRFPELESLVPNALDYIRTVKELGNSLDKCKNNENLQQILTNATIMVVSVTASTTQGQQLSEEELERLEEACDMALELNASKHRIYEYVESRMSFIAPNLSIIIGASTAAKIMGVAGGLTNLSKMPACNIMLLGAQRKTLSGFSSTSVLPHTGYIYHSDIVQSLPPDLRRKAARLVAAKCTLAARVDSFHESTEGKVGYELKDEIERKFDKWQEPPPVKQVKPLPAPLDGQRKKRGGRRYRKMKERLGLTEIRKQANRMSFGEIEEDAYQEDLGFSLGHLGKSGSGRVRQTQVNEATKARISKTLQRTLQKQSVVYGGKSTIRDRSSGTASSVAFTPLQGLEIVNPQAAEKKVAEANQKYFSSMAEFLKVKGEKSGLMST
partner: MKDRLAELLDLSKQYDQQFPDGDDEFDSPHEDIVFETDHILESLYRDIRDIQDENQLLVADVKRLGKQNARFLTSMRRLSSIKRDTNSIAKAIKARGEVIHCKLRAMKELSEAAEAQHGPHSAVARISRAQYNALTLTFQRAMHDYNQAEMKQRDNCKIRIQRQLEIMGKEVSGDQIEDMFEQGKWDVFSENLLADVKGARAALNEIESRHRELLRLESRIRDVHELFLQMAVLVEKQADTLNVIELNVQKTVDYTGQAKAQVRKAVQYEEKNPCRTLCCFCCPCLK
B3: U4/U6 small nuclear ribonucleoprotein Prp3 (Homo sapiens), O43395 (parent)
chain: MALSKRELDELKPWIEKTVKRVLGFSEPTVVTAALNCVGKGMDKKKAADHLKPFLDDSTLRFVDKLFEAVEEGRSSRHSKSSSDRSRKRELKEVFGDDSEISKESSGVKKRRIPRFEEVEEEPEVIPGPPSESPGMLTKLQIKQMMEAATRQIEERKKQLSFISPPTPQPKTPSSSQPERLPIGNTIQPSQAATFMNDAIEKARKAAELQARIQAQLALKPGLIGNANMVGLANLHAMGIAPPKVELKDQTKPTPLILDEQGRTVDATGKEIELTHRMPTLKANIRAVKREQFKQQLKEKPSEDMESNTFFDPRVSIAPSQRQRRTFKFHDKGKFEKIAQRLRTKAQLEKLQAEISQAARKTGIHTSTRLALIAPKKELKEGDIPEIEWWDSYIIPNGFDLTEENPKREDYFGITNLVEHPAQLNPPVDNDTPVTLGVYLTKKEQKKLRRQTRREAQKELQEKVRLGLMPPPEPKVRISNLMRVLGTEAVQDPTKVEAHVRAQMAKRQKAHEEANAARKLTAEQRKVKKIKKLKEDISQGVHISVYRVRNLSNPAKKFKIEANAGQLYLTGVVVLHKDVNVVVVEGGPKAQKKFKRLMLHRIKWDEQTSNTKGDDDEESDEEAVKKTNKCVLVWEGTAKDRSFGEMKFKQCPTENMAREHFKKHGAEHYWDLALSESVLESTD
partner: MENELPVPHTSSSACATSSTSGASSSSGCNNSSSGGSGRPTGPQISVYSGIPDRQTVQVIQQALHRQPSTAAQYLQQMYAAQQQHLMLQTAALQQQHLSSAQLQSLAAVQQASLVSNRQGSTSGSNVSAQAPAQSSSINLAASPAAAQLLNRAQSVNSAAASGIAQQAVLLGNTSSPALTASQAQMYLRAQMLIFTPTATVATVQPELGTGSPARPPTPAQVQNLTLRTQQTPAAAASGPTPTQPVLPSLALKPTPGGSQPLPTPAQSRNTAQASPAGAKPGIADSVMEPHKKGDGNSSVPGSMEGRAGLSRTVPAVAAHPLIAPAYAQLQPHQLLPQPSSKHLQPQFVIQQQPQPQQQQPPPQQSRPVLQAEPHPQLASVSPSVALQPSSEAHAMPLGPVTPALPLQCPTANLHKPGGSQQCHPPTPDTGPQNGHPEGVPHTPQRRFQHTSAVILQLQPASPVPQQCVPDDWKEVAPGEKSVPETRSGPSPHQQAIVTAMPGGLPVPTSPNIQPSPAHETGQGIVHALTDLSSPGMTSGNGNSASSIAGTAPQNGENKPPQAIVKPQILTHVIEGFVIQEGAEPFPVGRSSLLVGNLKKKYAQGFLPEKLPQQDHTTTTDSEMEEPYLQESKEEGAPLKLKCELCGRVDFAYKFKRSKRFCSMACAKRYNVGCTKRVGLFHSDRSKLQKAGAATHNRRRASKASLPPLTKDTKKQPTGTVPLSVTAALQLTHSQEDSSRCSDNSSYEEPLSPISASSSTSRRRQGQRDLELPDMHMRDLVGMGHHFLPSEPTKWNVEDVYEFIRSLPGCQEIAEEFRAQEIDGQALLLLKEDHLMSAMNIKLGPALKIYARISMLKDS
B4: Tyrosine-protein kinase BTK (Homo sapiens), Q06187 (parent)
chain: MAAVILESIFLKRSQQKKKTSPLNFKKRLFLLTVHKLSYYEYDFERGRRGSKKGSIDVEKITCVETVVPEKNPPPERQIPRRGEESSEMEQISIIERFPYPFQVVYDEGPLYVFSPTEELRKRWIHQLKNVIRYNSDLVQKYHPCFWIDGQYLCCSQTAKNAMGCQILENRNGSLKPGSSHRKTKKPLPPTPEEDQILKKPLPPEPAAAPVSTSELKKVVALYDYMPMNANDLQLRKGDEYFILEESNLPWWRARDKNGQEGYIPSNYVTEAEDSIEMYEWYSKHMTRSQAEQLLKQEGKEGGFIVRDSSKAGKYTVSVFAKSTGDPQGVIRHYVVCSTPQSQYYLAEKHLFSTIPELINYHQHNSAGLISRLKYPVSQQNKNAPSTAGLGYGSWEIDPKDLTFLKELGTGQFGVVKYGKWRGQYDVAIKMIKEGSMSEDEFIEEAKVMMNLSHEKLVQLYGVCTKQRPIFIITEYMANGCLLNYLREMRHRFQTQQLLEMCKDVCEAMEYLESKQFLHRDLAARNCLVNDQGVVKVSDFGLSRYVLDDEYTSSVGSKFPVRWSPPEVLMYSKFSSKSDIWAFGVLMWEIYSLGKMPYERFTNSETAEHIAQGLRLYRPHLASEKVYTIMYSCWHEKADERPTFKILLSNILDVMDEES
B5: X-linked retinitis pigmentosa GTPase regulator (Homo sapiens), Q92834 (parent)
chain: MREPEELMPDSGAVFTFGKSKFAENNPGKFWFKNDVPVHLSCGDEHSAVVTGNNKLYMFGSNNWGQLGLGSKSAISKPTCVKALKPEKVKLAACGRNHTLVSTEGGNVYATGGNNEGQLGLGDTEERNTFHVISFFTSEHKIKQLSAGSNTSAALTEDGRLFMWGDNSEGQIGLKNVSNVCVPQQVTIGKPVSWISCGYYHSAFVTTDGELYVFGEPENGKLGLPNQLLGNHRTPQLVSEIPEKVIQVACGGEHTVVLTENAVYTFGLGQFGQLGLGTFLFETSEPKVIENIRDQTISYISCGENHTALITDIGLMYTFGDGRHGKLGLGLENFTNHFIPTLCSNFLRFIVKLVACGGCHMVVFAAPHRGVAKEIEFDEINDTCLSVATFLPYSSLTSGNVLQRTLSARMRRRERERSPDSFSMRRTLPPIEGTLGLSACFLPNSVFPRCSERNLQESVLSEQDLMQPEEPDYLLDEMTKEAEIDNSSTVESLGETTDILNMTHIMSLNSNEKSLKLSPVQKQKKQQTIGELTQDTALTENDDSDEYEEMSEMKEGKACKQHVSQGIFMTQPATTIEAFSDEEVGNDTGQVGPQADTDGEGLQKEVYRHENNNGVDQLDAKEIEKESDGGHSQKESEAEEIDSEKETKLAEIAGMKDLREREKSTKKMSPFFGNLPDRGMNTESEENKDFVKKRESCKQDVIFDSERESVEKPDSYMEGASESQQGIADGFQQPEAIEFSSGEKEDDEVETDQNIRYGRKLIEQGNEKETKPIISKSMAKYDFKCDRLSEIPEEKEGAEDSKGNGIEEQEVEANEENVKVHGGRKEKTEILSDDLTDKAEDHEFSKTEELKLEDVDEEINAENVESKKKTVGDDESVPTGYHSKTEGAERTNDDSSAETIEKKEKANLEERAICEYNENPKGYMLDDADSSSLEILENSETTPSKDMKKTKKIFLFKRVPSINQKIVKNNNEPLPEIKSIGDQIILKSDNKDADQNHMSQNHQNIPPTNTERRSKSCTIL
partner: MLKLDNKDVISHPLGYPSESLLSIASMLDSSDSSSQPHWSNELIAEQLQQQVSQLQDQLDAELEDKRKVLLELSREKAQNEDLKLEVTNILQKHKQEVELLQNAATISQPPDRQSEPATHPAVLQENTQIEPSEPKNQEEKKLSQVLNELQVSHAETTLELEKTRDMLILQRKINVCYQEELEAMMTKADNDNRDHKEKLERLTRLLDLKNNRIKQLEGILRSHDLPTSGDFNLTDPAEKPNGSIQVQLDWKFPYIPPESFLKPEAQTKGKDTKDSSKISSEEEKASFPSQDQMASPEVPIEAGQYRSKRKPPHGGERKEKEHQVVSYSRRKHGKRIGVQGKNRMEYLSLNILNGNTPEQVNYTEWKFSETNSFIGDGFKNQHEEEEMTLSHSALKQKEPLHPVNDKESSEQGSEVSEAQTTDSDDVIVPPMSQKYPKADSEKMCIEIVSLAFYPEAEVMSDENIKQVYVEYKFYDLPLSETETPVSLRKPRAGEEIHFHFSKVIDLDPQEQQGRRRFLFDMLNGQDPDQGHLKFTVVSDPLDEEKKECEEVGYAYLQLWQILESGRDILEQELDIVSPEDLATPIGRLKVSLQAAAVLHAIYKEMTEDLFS

One test covers variants of B1. Conditions: with FLACC1, Q96Q35-2.
For the variant D191N, the “effect of a mutation on the interaction” value is on record as “with no effect”.

The variants in a further test derive from B2. The following applies: with stx11_human STX11, O75558.
Take L107V: the “effect of a mutation on the interaction” value is reported as “with no effect”.

The next test covers variants of B3. Conditions: with PHC2, Q8IXK0-5.
For T494M, the “effect of a mutation on the interaction” value is listed as “disrupting interaction strength”.
As to P493S, the “effect of a mutation on the interaction” value is recorded as “disrupting interaction strength”.
The same measure, in the same setting: the result for A489D reads “disrupting interaction strength”.

The next test covers variants of B4. The following applies: with meox2_human MEOX2, P50222.
Sequence of meox2_human MEOX2, P50222 (P50222 whole entry): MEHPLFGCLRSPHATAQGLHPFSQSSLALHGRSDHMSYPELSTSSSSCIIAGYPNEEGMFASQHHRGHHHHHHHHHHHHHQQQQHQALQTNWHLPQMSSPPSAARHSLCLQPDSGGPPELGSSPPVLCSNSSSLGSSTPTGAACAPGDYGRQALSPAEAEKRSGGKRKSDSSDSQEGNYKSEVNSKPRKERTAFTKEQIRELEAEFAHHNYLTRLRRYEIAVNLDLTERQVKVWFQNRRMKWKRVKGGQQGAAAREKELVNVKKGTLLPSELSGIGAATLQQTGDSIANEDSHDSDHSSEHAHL
As for P565L, the “effect of a mutation on the interaction” value was “disrupting interaction strength”.

Variants of B5 are the subject of another test. The following applies: with RPGRIP1, Q96KN7-4.
For R425K, the “effect of a mutation on the interaction” value is on record as “with no effect”.
As for G436D, the “effect of a mutation on the interaction” value is given as “with no effect”.
The same measure, in the same setting: under T255I stands “disrupting interaction strength”.
